# From the supplement of paper PMC5998384
# Experiments:
# [1] = system: HeLa Kyoto; test: solubility in G1/S (NP-40 vs SDS abundance) (log2 ratio); higher = more soluble; conditions: cell cycle stage: G1/S
# [2] = system: HeLa Kyoto; test: melting temperature (median over replicates), in situ; higher = more thermally stable
# [3] = system: HeLa Kyoto; test: solubility change mitosis vs G1/S (difference of NP-40 vs SDS log2 ratios) (log2 ratio difference); higher = more soluble in mitosis
# [4] = system: HeLa Kyoto; test: thermal stability score vs G1/S (z-score of summed log2 fold changes over temperatures); higher = more thermally stable than in G1/S
# [5] = cell cycle stage: early G1 (4.5 h after nocodazole release)
# 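For melting temperature (median over replicates), in situ in this document: HeLa Kyoto cells synchronized by double thymidine or nocodazole block, proteins quantified by TMT10plex mass spectrometry, three independent biological replicates.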
# 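For solubility change mitosis vs G1/S (difference of NP-40 vs SDS log2 ratios) in this document: synchronized HeLa Kyoto cells (double thymidine block for G1/S, nocodazole release for mitosis), protein amounts in NP-40 versus SDS lysates quantified by mass spectrometry, three biological replicates.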
# 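For solubility in G1/S (NP-40 vs SDS abundance) in this document: HeLa Kyoto cells arrested at G1/S by double thymidine block, proteins quantified by TMT10plex mass spectrometry in mild NP-40 versus SDS extracts, three biological replicates.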
# 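For thermal stability score vs G1/S (z-score of summed log2 fold changes over temperatures) in this document: synchronized HeLa Kyoto cells, proteins quantified by TMT10plex mass spectrometry, three biological replicates, mitosis taken 0.5 h after nocodazole release, G1/S directly after double thymidine block.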
Sequence,solubility in G1/S (log2) [1],melting temperature ([2]; cell cycle stage: G1/S) [°C],melting temperature ([2]; cell cycle stage: mitosis) [°C],solubility change mitosis (log2) [3],"thermal stability score [4, 5]",thermal stability score ([4]; cell cycle stage: mitosis)
MIHSLFLINCSGDIFLEKHWKSVVSQSVCDYFFEAQEKAADVENVPPVISTPHHYLISIYRDKLFFVSVIQTEVPPLFVIEFLHRVADTFQDYFGECSEAAIKDNVVIVYELLEEMLDNGFPLATESNILKELIKPPTILRSVVNSITGSSNVGDTLPTGQLSNIPWRRAGVKYTNNEAYFDVVEEIDAIIDKSGSTVFAEIQGVIDACIKLSGMPDLSLSFMNPRLLDDVSFHPCIRFKRWESERVLSFIPPDGNFRLISYRVSSQNLVAIPVYVKHSISFKENSSCGRFDITIGPKQNMGKTIEGITVTVHMPKVVLNMNLTPTQGSYTFDPVTKVLTWDVGKITPQKLPSLKGLVNLQSGAPKPEENPSLNIQFKIQQLAISGLKVNRLDMYGEKYKPFKGVKYVTKAGKFQVRT [AP3M1],-0.0152,50.8,50.1,-0.0783,0.811,0.722
MILIPRMLLVLFLLLPILSSAKAQVNPAICRYPLGMSGGQIPDEDITASSQWSESTAAKYGRLDSEEGDGAWCPEIPVEPDDLKEFLQIDLHTLHFITLVGTQGRHAGGHGIEFAPMYKINYSRDGTRWISWRNRHGKQVLDGNSNPYDIFLKDLEPPIVARFVRFIPVTDHSMNVCMRVELYGCVWLDGLVSYNAPAGQQFVLPGGSIIYLNDSVYDGAVGYSMTEGLGQLTDGVSGLDDFTQTHEYHVWPGYDYVGWRNESATNGYIEIMFEFDRIRNFTTMKVHCNNMFAKGVKIFKEVQCYFRSEASEWEPNAISFPLVLDDVNPSARFVTVPLHHRMASAIKCQYHFADTWMMFSEITFQSDAAMYNNSEALPTSPMAPTTYDPMLKVDDSNTRILIGCLVAIIFILLAIIVIILWRQFWQKMLEKASRRMLDDEMTVSLSLPSDSSMFNNNRSSSPSEQGSNSTYDRIFPLRPDYQEPSRLIRKLPEFAPGEEESGCSGVVKPVQPSGPEGVPHYAEADIVNLQGVTGGNTYSVPAVTMDLLSGKDVAVEEFPRKLLTFKEKLGEGQFGEVHLCEVEGMEKFKDKDFALDVSANQPVLVAVKMLRADANKNARNDFLKEIKIMSRLKDPNIIHLLAVCITDDPLCMITEYMENGDLNQFLSRHEPPNSSSSDVRTVSYTNLKFMATQIASGMKYLSSLNFVHRDLATRNCLVGKNYTIKIADFGMSRNLYSGDYYRIQGRAVLPIRWMSWESILLGKFTTASDVWAFGVTLWETFTFCQEQPYSQLSDEQVIENTGEFFRDQGRQTYLPQPAICPDSVYKLMLSCWRRDTKNRPSFQEIHLLLLQQGDE [DDR2],-0.114,50.8,51,0.0106,0.527,-1.72
MIPRKRYGSKNTDQGVYLGLSKTQVLSPATAGSSSSDIAPLPPPVTLVPPPPDTMSCRDRTQEFLSACKSLQTRQNGIQTNKPALRAVRQRSEFTLMAKRIGKDLSNTFAKLEKLTILAKRKSLFDDKAVEIEELTYIIKQDINSLNKQIAQLQDFVRAKGSQSGRHLQTHSNTIVVSLQSKLASMSNDFKSVLEVRTENLKQQRSRREQFSRAPVSALPLAPNHLGGGAVVLGAESHASKDVAIDMMDSRTSQQLQLIDEQDSYIQSRADTMQNIESTIVELGSIFQQLAHMVKEQEETIQRIDENVLGAQLDVEAAHSEILKYFQSVTSNRWLMVKIFLILIVFFIIFVVFLA [STX5],0.558,50,49.9,-0.103,0.862,1.55
MIPVAEFKQFTEQQPAFKVLKPWWDVLAEYLTVAMLMIGVFGCTLQVTQDKIICLPNHELQENLSEAPCQQLLPRGIPEQIGALQEVKGLKNNLDLQQYSFINQLCYETALHWYAKYFPYLVVIHTLIFMVCTSFWFKFPGTSSKIEHFISILGKCFDSPWTTRALSEVSGENQKGPAATERAAATIVAMAGTGPGKAGEGEKEKVLAEPEKVVTEPPVVTLLDKKEGEQAKALFEKVKKFRMHVEEGDILYTMYIRQTVLKVCKFLAILVYNLVYVEKISFLVACRVETSEVTGYASFCCNHTKAHLFSKLAFCYISFVCIYGLTCIYTLYWLFHRPLKEYSFRSVREETGMGDIPDVKNDFAFMLHLIDQYDSLYSKRFAVFLSEVSESRLKQLNLNHEWTPEKLRQKLQRNAAGRLELALCMLPGLPDTVFELSEVESLRLEAICDITFPPGLSQLVHLQELSLLHSPARLPFSLQVFLRDHLKVMRVKCEELREVPLWVFGLRGLEELHLEGLFPQELARAATLESLRELKQLKVLSLRSNAGKVPASVTDVAGHLQRLSLHNDGARLVALNSLKKLAALRELELVACGLERIPHAVFSLGALQELDLKDNHLRSIEEILSFQHCRKLVTLRLWHNQIAYVPEHVRKLRSLEQLYLSYNKLETLPSQLGLCSGLRLLDVSHNGLHSLPPEVGLLQNLQHLALSYNALEALPEELFFCRKLRTLLLGDNQLSQLSPHVGALRALSRLELKGNRLEALPEELGNCGGLKKAGLLVEDTLYQGLPAEVRDKMEEE [LRRC8E],0.0423,53.2,53.1,-0.0391,-1.17,-1.48
MIPVTELRYFADTQPAYRILKPWWDVFTDYISIVMLMIAVFGGTLQVTQDKMICLPCKWVTKDSCNDSFRGWAAPGPEPTYPNSTILPTPDTGPTGIKYDLDRHQYNYVDAVCYENRLHWFAKYFPYLVLLHTLIFLACSNFWFKFPRTSSKLEHFVSILLKCFDSPWTTRALSETVVEESDPKPAFSKMNGSMDKKSSTVSEDVEATVPMLQRTKSRIEQGIVDRSETGVLDKKEGEQAKALFEKVKKFRTHVEEGDIVYRLYMRQTIIKVIKFILIICYTVYYVHNIKFDVDCTVDIESLTGYRTYRCAHPLATLFKILASFYISLVIFYGLICMYTLWWMLRRSLKKYSFESIREESSYSDIPDVKNDFAFMLHLIDQYDPLYSKRFAVFLSEVSENKLRQLNLNNEWTLDKLRQRLTKNAQDKLELHLFMLSGIPDTVFDLVELEVLKLELIPDVTIPPSIAQLTGLKELWLYHTAAKIEAPALAFLRENLRALHIKFTDIKEIPLWIYSLKTLEELHLTGNLSAENNRYIVIDGLRELKRLKVLRLKSNLSKLPQVVTDVGVHLQKLSINNEGTKLIVLNSLKKMANLTELELIRCDLERIPHSIFSLHNLQEIDLKDNNLKTIEEIISFQHLHRLTCLKLWYNHIAYIPIQIGNLTNLERLYLNRNKIEKIPTQLFYCRKLRYLDLSHNNLTFLPADIGLLQNLQNLAITANRIETLPPELFQCRKLRALHLGNNVLQSLPSRVGELTNLTQIELRGNRLECLPVELGECPLLKRSGLVVEEDLFNTLPPEVKERLWRADKEQA [LRRC8A],-0.294,54,52.9,0.00706,-0.642,-0.308
MISAAQLLDELMGRDRNLAPDEKRSNVRWDHESVCKYYLCGFCPAELFTNTRSDLGPCEKIHDENLRKQYEKSSRFMKVGYERDFLRYLQSLLAEVERRIRRGHARLALSQNQQSSGAAGPTGKNEEKIQVLTDKIDVLLQQIEELGSEGKVEEAQGMMKLVEQLKEERELLRSTTSTIESFAAQEKQMEVCEVCGAFLIVGDAQSRVDDHLMGKQHMGYAKIKATVEELKEKLRKRTEEPDRDERLKKEKQEREEREKEREREREERERKRRREEEEREKERARDRERRKRSRSRSRHSSRTSDRRCSRSRDHKRSRSRERRRSRSRDRRRSRSHDRSERKHRSRSRDRRRSKSRDRKSYKHRSKSRDREQDRKSKEKEKRGSDDKKSSVKSGSREKQSEDTNTESKESDTKNEVNGTSEDIKSEGDTQSN [LUC7L3],-0.95,50.1,50.8,0.0899,0.00947,2.68
MKAIKKSLTEEEYLYLDFSHQTEGCIFPLHTSVTLFLLSYCDCKIFKICLVVTKEVSRDSSLLRDDLIQDVEIQIISRQELPPIVQNCCLPAVVERSDNFCRAGLAVVLRHIIQKSYEADPLKKELLELLGFKKTCLKACAEVSQWTRLCELTIPLAIENFLRESSDQPPTIPVEILQLEKKLSEPVRVHNDDKLRRQKLKQQKADGVGPPLTKGKAKSKVHTQETSEGLDSSSKSLELKVAFSKLTVQEEPATTNREPSHIRKAKASDLPPLEHVFAEGLYFTLADIVLLPCIHHFLVIISRKFSEKLVEFPLLASWYQRIQEVPGVKTAASKCGIQFLHLPKLLTTSTEQHPNLCEVPGVEEQSDPLFIGGPRPTMAKLMEKGIEVMFSPHPCPTWTLDWNVLPAAVSPKEGKMSSDRALRKQQQLNNLVYVVTNQAKPGDRIVDFCSGGGHVGIVLAHMLPSCQVTLIENKELSLIRAKKRSDELGLSNIWFIQANMEYFTGMFNIGVALHACGVATDMVIEHCIKTRASFVTCPCCYGFIQNTSKFNFPKSEQFKKTLSYKEHMILCRFADQTAVQLPPQRRLIGKQCMCLVDLDRARAAEECGYSVQVISMEPESCSPKNNMIVGVPI [GSTCD],-0.0129,51.7,53.4,-0.116,-0.282,-1.67
MKCVFVTVGTTSFDDLIACVSAPDSLQKIESLGYNRLILQIGRGTVVPEPFSTESFTLDVYRYKDSLKEDIQKADLVISHAGAGSCLETLEKGKPLVVVINEKLMNNHQLELAKQLHKEGHLFYCTCRVLTCPGQAKSIASAPGKCQDSAALTSTAFSGLDFGLLSGYLHKQALVTATHPTCTLLFPSCHAFFPLPLTPTLYKMHKGWKNYCSQKSLNEASMDEYLGSLGLFRKLTAKDASCLFRAISEQLFCSQVHHLEIRKACVSYMRENQQTFESYVEGSFEKYLERLGDPKESAGQLEIRALSLIYNRDFILYRFPGKPPTYVTDNGYEDKILLCYSSSGHYDSVYSKQFQSSAAVCQAVLYEILYKDVFVVDEEELKTAIKLFRSGSKKNRNNAVTGSEDAHTDYKSSNQNRMEEWGACYNAENIPEGYNKGTEETKSPENPSKMPFPYKVLKALDPEIYRNVEFDVWLDSRKELQKSDYMEYAGRQYYLGDKCQVCLESEGRYYNAHIQEVGNENNSVTVFIEELAEKHVVPLANLKPVTQVMSVPAWNAMPSRKGRGYQKMPGGYVPEIVISEMDIKQQKKMFKKIRGKEVYMTMAYGKGDPLLPPRLQHSMHYGHDPPMHYSQTAGNVMSNEHFHPQHPSPRQGRGYGMPRNSSRFINRHNMPGPKVDFYPGPGKRCCQSYDNFSYRSRSFRRSHRQMSCVNKESQYGFTPGNGQMPRGLEETITFYEVEEGDETAYPTLPNHGGPSTMVPATSGYCVGRRGHSSGKQTLNLEEGNGQSENGRYHEEYLYRAEPDYETSGVYSTTASTANLSLQDRKSCSMSPQDTVTSYNYPQKMMGNIAAVAASCANNVPAPVLSNGAAANQAISTTSVSSQNAIQPLFVSPPTHGRPVIASPSYPCHSAIPHAGASLPPPPPPPPPPPPPPPPPPPPPPPPPPPALDVGETSNLQPPPPLPPPPYSCDPSGSDLPQDTKVLQYYFNLGLQCYYHSYWHSMVYVPQMQQQLHVENYPVYTEPPLVDQTVPQCYSEVRREDGIQAEASANDTFPNADSSSVPHGAVYYPVMSDPYGQPPLPGFDSCLPVVPDYSCVPPWHPVGTAYGGSSQIHGAINPGPIGCIAPSPPASHYVPQGM [ALG13],0.392,53.4,52.2,0.0555,2.01,-0.34
MKDVPGFLQQSQNSGPGQPAVWHRLEELYTKKLWHQLTLQVLDFVQDPCFAQGDGLIKLYENFISEFEHRVNPLSLVEIILHVVRQMTDPNVALTFLEKTREKVKSSDEAVILCKTAIGALKLNIGDLQVTKETIEDVEEMLNNLPGVTSVHSRFYDLSSKYYQTIGNHASYYKDALRFLGCVDIKDLPVSEQQERAFTLGLAGLLGEGVFNFGELLMHPVLESLRNTDRQWLIDTLYAFNSGNVERFQTLKTAWGQQPDLAANEAQLLRKIQLLCLMEMTFTRPANHRQLTFEEIAKSAKITVNEVELLVMKALSVGLVKGSIDEVDKRVHMTWVQPRVLDLQQIKGMKDRLEFWCTDVKSMEMLVEHQAHDILT [PSMD13],0.0175,53.2,51.3,-0.181,1.44,2.56
